Source: publication PMC12881670, “Investigation into ligand selectivity and bias at the formyl peptide receptor family” (The Journal of Pharmacology and Experimental Therapeutics, 2025)
Where no end group is shown, it is not given here. [ ]: non-standard residue; d: D form.

How the values were obtained:
[1] = biological target: T1, FLAG-tagged mouse Fpr1 (Mm_Fpr1) (mouse, UniProt P33766 1-364); assay: flow cytometry on cells; competition binding: HEK293 cells stably expressing the receptor, lifted in PBS, on ice 90 min with 10 nM K(5/6-FAM)-WKYMVm and increasing unlabeled ligand; mean fluorescence of 5000 cells as % of that without competitor; One site-Fit logIC50
T1 construct: mouse formyl peptide receptor 1; cDNA purchased (ThermoFisher); source: HEK293, stably expressed, on cells; not shown: FLAG, N-terminal, kept
T1 sequence (looked up): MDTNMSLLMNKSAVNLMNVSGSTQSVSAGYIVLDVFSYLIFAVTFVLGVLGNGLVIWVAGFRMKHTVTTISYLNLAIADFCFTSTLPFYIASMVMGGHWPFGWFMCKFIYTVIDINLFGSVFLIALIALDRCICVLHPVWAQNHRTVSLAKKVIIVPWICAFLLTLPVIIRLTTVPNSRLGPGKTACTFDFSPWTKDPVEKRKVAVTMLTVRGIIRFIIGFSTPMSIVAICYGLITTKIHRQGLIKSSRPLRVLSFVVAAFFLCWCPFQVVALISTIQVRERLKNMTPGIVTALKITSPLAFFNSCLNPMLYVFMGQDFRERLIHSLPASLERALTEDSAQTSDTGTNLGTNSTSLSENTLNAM

[2] = biological target: T2, FLAG-Hs_FPR1 C-terminally fused to Renilla Luciferase 8 (human, UniProt P21462 1-350); assay: cell-based or functional assay
T2 sequence (looked up): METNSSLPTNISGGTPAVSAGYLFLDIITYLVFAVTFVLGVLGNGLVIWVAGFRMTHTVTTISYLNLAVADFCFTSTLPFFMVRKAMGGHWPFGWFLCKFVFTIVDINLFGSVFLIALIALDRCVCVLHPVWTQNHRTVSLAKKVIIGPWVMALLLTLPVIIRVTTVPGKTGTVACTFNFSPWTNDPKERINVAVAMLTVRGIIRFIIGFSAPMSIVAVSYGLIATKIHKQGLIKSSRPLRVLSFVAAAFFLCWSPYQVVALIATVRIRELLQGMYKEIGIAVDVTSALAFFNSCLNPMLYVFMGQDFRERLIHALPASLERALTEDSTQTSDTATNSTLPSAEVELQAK

[3] = biological target: T3, FLAG-Mm_Fpr1 C-terminally fused to Renilla Luciferase 8 (mouse, UniProt P33766 1-364); assay: cell-based or functional assay
T3 sequence (looked up): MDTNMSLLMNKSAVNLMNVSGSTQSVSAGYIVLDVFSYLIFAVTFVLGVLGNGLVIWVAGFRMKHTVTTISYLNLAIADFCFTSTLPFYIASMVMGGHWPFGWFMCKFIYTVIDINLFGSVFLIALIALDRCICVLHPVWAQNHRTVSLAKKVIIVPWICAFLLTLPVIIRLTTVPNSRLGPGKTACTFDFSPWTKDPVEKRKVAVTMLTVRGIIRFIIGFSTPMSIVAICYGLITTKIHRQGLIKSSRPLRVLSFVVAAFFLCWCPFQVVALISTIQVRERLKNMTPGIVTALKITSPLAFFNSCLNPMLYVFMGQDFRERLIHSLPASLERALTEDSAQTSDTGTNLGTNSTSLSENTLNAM

[4] = biological target: T4, FLAG-Hs_FPR2 C-terminally fused to Renilla Luciferase 8 (human, UniProt P25090 1-351); assay: cell-based or functional assay
T4 sequence (looked up): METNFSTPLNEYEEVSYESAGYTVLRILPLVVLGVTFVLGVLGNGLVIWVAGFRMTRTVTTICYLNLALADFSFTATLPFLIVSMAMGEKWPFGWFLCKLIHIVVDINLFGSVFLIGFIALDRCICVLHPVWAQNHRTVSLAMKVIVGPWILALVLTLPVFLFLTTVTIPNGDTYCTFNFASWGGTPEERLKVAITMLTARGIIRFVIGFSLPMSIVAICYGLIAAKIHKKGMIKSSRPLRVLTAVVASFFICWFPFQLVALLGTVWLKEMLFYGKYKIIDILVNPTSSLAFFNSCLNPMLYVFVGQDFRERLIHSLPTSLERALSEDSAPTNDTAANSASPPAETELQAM

[5] = biological target: T5, FLAG-Mm_Fpr2 C-terminally fused to Renilla Luciferase 8 (mouse, UniProt O88536 1-351); assay: cell-based or functional assay
T5 sequence (looked up): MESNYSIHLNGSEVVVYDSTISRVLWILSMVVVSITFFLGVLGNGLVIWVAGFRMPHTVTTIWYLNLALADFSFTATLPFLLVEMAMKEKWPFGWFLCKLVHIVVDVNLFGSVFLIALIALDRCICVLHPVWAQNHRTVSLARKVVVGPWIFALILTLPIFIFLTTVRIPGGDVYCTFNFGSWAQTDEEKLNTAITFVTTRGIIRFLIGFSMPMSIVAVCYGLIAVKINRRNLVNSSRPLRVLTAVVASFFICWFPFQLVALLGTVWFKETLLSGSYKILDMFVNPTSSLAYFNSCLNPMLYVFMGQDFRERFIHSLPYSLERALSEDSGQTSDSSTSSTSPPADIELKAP

B1: WKYMVm (peptide)
peptide: WKYMV[dM]
notes: the last residue is the D form; the bought peptide is probably also an amide (surmise); source: bought: Tocris
[1]
  Log IC50: -6.79 log M
  Max Comp (%): 97%
[2]
  BRET of receptor-RLuc8 with Venus-mGsi: Emax (% of 1 μM WKYMVm): 112%
[3]
  BRET of receptor-RLuc8 with Venus-mGsi: Emax (% of 1 μM WKYMVm): 109%
  BRET of receptor-RLuc8 with Venus-mGsi: Log EC50 (M): -6.69 log M
[4]
  BRET of receptor-RLuc8 with Venus-mGsi: Emax (% of 1 μM WKYMVm): 100%
  BRET of receptor-RLuc8 with Venus-mGsi: Log EC50 (M): -8.11 log M
[5]
  BRET of receptor-RLuc8 with Venus-mGsi: Emax (% of 1 μM WKYMVm): 103%
  BRET of receptor-RLuc8 with Venus-mGsi: Log EC50 (M): -7.51 log M
